In paper PMC9506655, “Comparative structural insight into the unidirectional catalysis of ornithine carbamoyltransferases from Psychrobacter sp. PAMC 21119” (PLoS ONE, 2022) one finds stoichiometry N, thermal shift and ΔT data, which are given here for 4 molecules.

The target in assay [1] is catabolic ornithine carbamoyltransferase from Psychrobacter sp. PAMC 21119 (Psychrobacter sp. PAMC 21119). The assay can be described thus: SEC; Superdex 200 10/300 GL, 20 mM Tris-HCl pH 8.0, NaCl 300, 500 and 1,000 mM, protein 1 mg/mL, column calibrated with standards. A general note: SEC sorts molecules by how far they enter the pores of the column.
Assay [2] has the same target. The assay can be described thus: crystal structure; X-ray, molecular replacement; Ps_cOTC at 2.6 Å (0.1 M Tris-HCl pH 8.1, 1.3 M lithium sulfate), Ps_aOTC at 2.2 Å (0.1 M sodium acetate:HCl pH 4.6, 1 M ammonium citrate dibasic).
Assay [3] has the same target. The assay can be described thus: AUC; sedimentation velocity, 20 mM Tris-HCl pH 8.0, 200 mM NaCl, 20°C, 42,000 RPM, SEDFIT.
For assay [4], the target named is anabolic ornithine carbamoyltransferase from Psychrobacter sp. PAMC 21119 (Psychrobacter sp. PAMC 21119). Briefly: SEC; Superdex 200 10/300 GL, 20 mM Tris-HCl pH 8.0, NaCl 300, 500 and 1,000 mM, protein 1 mg/mL, column calibrated with standards.
Assay [5] has the same target. The assay can be described thus: crystal structure; X-ray, molecular replacement; Ps_cOTC at 2.6 Å (0.1 M Tris-HCl pH 8.1, 1.3 M lithium sulfate), Ps_aOTC at 2.2 Å (0.1 M sodium acetate:HCl pH 4.6, 1 M ammonium citrate dibasic).
For assay [6] the target is unchanged. The assay can be described thus: AUC; sedimentation velocity, 20 mM Tris-HCl pH 8.0, 200 mM NaCl, 20°C, 42,000 RPM, SEDFIT.
Assay [7] deals with T1, Ps_cOTC (Psychrobacter sp. PAMC 21119, UniProt Z9QBN3KKL3).
T1 construct: full-length arcB product, N-terminal His6 (pET-28a NdeI) kept; expressed in E. coli BL21(DE3); homotrimer in solution
T1 sequence (Z9QBN3KKL3 1-336): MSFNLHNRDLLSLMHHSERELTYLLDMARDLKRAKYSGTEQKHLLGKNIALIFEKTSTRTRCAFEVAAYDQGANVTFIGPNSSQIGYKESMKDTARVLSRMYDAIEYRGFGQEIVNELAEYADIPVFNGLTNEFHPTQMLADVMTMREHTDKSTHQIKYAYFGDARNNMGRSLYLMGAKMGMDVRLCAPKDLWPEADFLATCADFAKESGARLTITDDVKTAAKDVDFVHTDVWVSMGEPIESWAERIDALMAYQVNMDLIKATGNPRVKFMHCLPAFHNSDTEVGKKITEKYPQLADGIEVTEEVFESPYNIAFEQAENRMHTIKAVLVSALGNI
The assay can be described thus: label-free thermal shift (Tycho NT.[…], intrinsic fluorescence). As to conditions: with 50 mM CP (no shift by NVA alone); 20 mM Tris-HCl pH 8.0; 15 min incubation at 295 K. Format: binding.

Assay [8] addresses T2, Ps_aOTC (Psychrobacter sp. PAMC 21119, UniProt A0ACD6BAY5).
T2 construct: full-length argF product, N-terminal His6 (pET-28a) kept; expressed in E. coli BL21(DE3); homotrimer in solution
The assay is described as above. Format: binding. The following applies: with 5 mM CP (no shift by NVA alone); 20 mM Tris-HCl pH 8.0; 15 min incubation at 295 K.

In assay [9] the target is T1, Ps_cOTC. The assay is described as above. Format: binding. The following applies: apo Tm 71.9 ± 0.0 °C; up to 50 mM CP; 20 mM Tris-HCl pH 8.0; 15 min incubation at 295 K.
Assay [10] deals with T2, Ps_aOTC. The assay is described as above. In kind it is binding. As to conditions: apo Tm 53.7 ± 0.4 °C; saturating at 20 mM CP; 20 mM Tris-HCl pH 8.0; 15 min incubation at 295 K.

T2 sequence (A0ACD6BAY5 entry or part of it): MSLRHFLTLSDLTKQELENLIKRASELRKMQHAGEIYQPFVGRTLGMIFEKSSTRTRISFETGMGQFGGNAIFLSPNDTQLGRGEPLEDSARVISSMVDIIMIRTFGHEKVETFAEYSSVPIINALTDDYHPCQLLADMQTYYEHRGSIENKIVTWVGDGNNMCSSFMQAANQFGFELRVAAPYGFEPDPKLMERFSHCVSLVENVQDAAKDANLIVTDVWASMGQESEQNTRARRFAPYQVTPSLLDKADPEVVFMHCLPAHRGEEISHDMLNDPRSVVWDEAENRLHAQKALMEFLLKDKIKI

Take “catabolic ornithine carbamoyltransferase from Psychrobacter sp. PAMC 21119 (enzyme)”: the stoichiometry N in assay [1], in assay [2] and in assay [3] was 3 throughout.

Take “anabolic ornithine carbamoyltransferase from Psychrobacter sp. PAMC 21119 (enzyme)”: the stoichiometry N in [4], in assay [5] and in [6] was 3 throughout.

On to `CCC[C@H](N)C(=O)O` [NVA, l-norvaline], for which the thermal shift entry is “following CP binding, NVA can bind to Ps_cOTC and Ps_aOTC” in assay [7]; “following CP binding, NVA can bind to Ps_cOTC and Ps_aOTC” in [8].

Turning to `NC(=O)OP(=O)(O)O` [CP, carbamoyl phosphate], the values for the ΔT in [9] and in [10] were 1.3 °C and 6.5 °C, respectively.

By stoichiometry N is commonly meant a count of units in the complex or per binding partner.
